Measured values taken from patent US20260132197A1 (NANJING LEGEND BIOTECH, published 2026).

Columns and labels:
Human CD47-C33G [1] = molecular target: T1, Human CD47-C33G (human, UniProt Q08722 19-135); experiment: SPR, IgG captured, CD47 in flow; exp 2;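 note: rates derived from association and dissociation curves, KD estimated from them, C33G mutein used to avoid CD47 IgV homodimers for true monovalent affinity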
T1 construct: also called CD47 mutein with C33G mutation

[2] = molecular target: T2, wild type human CD47 (Acro Biosystems, cat. no. CD7-H5227) (human, UniProt Q08722 19-139); experiment: SPR, IgG captured, CD47 in flow; exp 2;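 note: rates derived from association and dissociation curves, KD estimated from them, C33G mutein used to avoid CD47 IgV homodimers for true monovalent affinity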
T2 construct: Bought protein used as SPR analyte; also called Human CD47 wt; wild-type CD47

Human CD47-C33G [3] = molecular target: T1, Human CD47-C33G; experiment: SPR, IgG captured, CD47 in flow; exp 4
[4] = molecular target: T2, wild type human CD47 (Acro Biosystems, …); experiment: SPR, IgG captured, CD47 in flow; exp 4
Human CD47-C33G [5] = molecular target: T1, Human CD47-C33G; experiment: SPR, IgG captured, CD47 in flow; exp 1
[6] = molecular target: T2, wild type human CD47 (Acro Biosystems, …); experiment: SPR, IgG captured, CD47 in flow; exp 1
Human CD47-C33G [7] = molecular target: T1, Human CD47-C33G; experiment: SPR, IgG captured, CD47 in flow; exp 3
[8] = molecular target: T2, wild type human CD47 (Acro Biosystems, …); experiment: SPR, IgG captured, CD47 in flow; exp 3
Human CD47-C33G [9] = molecular target: T1, Human CD47-C33G; experiment: SPR, IgG captured, CD47 in flow; exp 1; remark: listed apart in the source
[10] = molecular target: T3, human CD47 on cells (SHP-77 tumor cells, human red blood cells, CCRF-CEM cells, human CD47 CHO-K1 stable cell … (human, UniProt Q08722 19-323)); experiment: flow cytometry on human RBCs;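 note: antibody binding measured by flow cytometry as geometric mean fluorescence intensity over a range of antibody concentrations, with EC50 and maximum taken from a sigmoidal dose-response fit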
T3 construct: whole, on cells; also called RBC

[11] = molecular target: T3, human CD47 on cells (SHP-77 tumor …); experiment: flow cytometry on human CD47 CHO-K1 cells
[12] = molecular target: T3, human CD47 on cells (SHP-77 tumor …); experiment: flow cytometry on human RBCs; poor fitting, not accurate;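 for Fitted Maximal MFI: antibody binding measured by flow cytometry as geometric mean fluorescence intensity over a range of antibody concentrations, with EC50 and maximum taken from a sigmoidal dose-response fit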
[13] = molecular target: T3, human CD47 on cells (SHP-77 tumor …); experiment: flow cytometry on SHP-77 cells
Human CD47-C33G [14] = molecular target: T1, Human CD47-C33G; experiment: SPR, IgG captured, CD47 in flow; exp 3; remark: listed apart in the source
[15] = molecular target: T2, wild type human CD47 (Acro Biosystems, …); experiment: SPR, IgG captured, CD47 in flow; exp 3; remark: listed apart in the source
[16] = molecular target: T4, cynomolgus CD47 on CHO-K1 stable cell line (cynomolgus, UniProt A0A5F8AK49 19-323 (rhesus entry)); experiment: flow cytometry on cynomolgus CD47 CHO-K1 cells
T4 construct: whole, on cells; also called cynomolgus CD47/CHO-K1

[17] = molecular target: T3, human CD47 on cells (SHP-77 tumor …); experiment: flow cytometry on human RBCs; plateau not reached, not accurate;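 for Fitted Maximal MFI: antibody binding measured by flow cytometry as geometric mean fluorescence intensity over a range of antibody concentrations, with EC50 and maximum taken from a sigmoidal dose-response fit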
Human CD47-C33G [18] = molecular target: T1, Human CD47-C33G; experiment: SPR, IgG captured, CD47 in flow; exp 4; remark: listed apart in the source
[19] = molecular target: T2, wild type human CD47 (Acro Biosystems, …); experiment: SPR, IgG captured, CD47 in flow; exp 4; remark: listed apart in the source
Human CD47-C33G [20] = molecular target: T1, Human CD47-C33G; experiment: SPR, IgG captured, CD47 in flow; exp 1; remark: listed apart in the source
[21] = molecular target: T2, wild type human CD47 (Acro Biosystems, …); experiment: SPR, IgG captured, CD47 in flow; exp 1; remark: listed apart in the source

B1: 108VH10 / 108VL10.M1 (antibody, V domains shown)
VH: EVQLVESGGGLVQPGGSLRLSCAASGYSFTHHWIHWVRQAPGKGLEWVAMIDPSDSETRLSQKFKDRFTISADTSKNTAYLQMNSLRAEDTAVYYCSRLGRYYFDYWGQGTLVTVSS
VL: DIQMTQSPSSLSASVGDRVTITCRASENVGTYISWYQQKPGKAPKLLIYGASNRYTGVPSRFSGSRSGTDFTLTISSLQPEDFATYYCGESYGHLYTFGQGTKVEIK
notes: 4D5-framework series; also called VH10 VL10.M1; straight-graft antibody
Q: What does the source list for B1?
A: Kd (Human CD47-C33G [1]): 43 nM; koff (Human CD47-C33G [1]): 0.0038 s⁻¹; kon (Human CD47-C33G [1]): 87000 M⁻¹ s⁻¹; Kd [2]: 5.8 nM; koff [2]: 0.0016 s⁻¹; kon [2]: 280000 M⁻¹ s⁻¹; Kd (Human CD47-C33G [3]): 28 nM; koff (Human CD47-C33G [3]): 0.003 s⁻¹; kon (Human CD47-C33G [3]): 110000 M⁻¹ s⁻¹; Kd [4]: 5.2 nM; koff [4]: 0.0013 s⁻¹; kon [4]: 240000 M⁻¹ s⁻¹; Kd (Human CD47-C33G [5]): 34 nM; koff (Human CD47-C33G [5]): 0.0034 s⁻¹; kon (Human CD47-C33G [5]): 99000 M⁻¹ s⁻¹; Kd [6]: 5.6 nM; koff [6]: 0.0013 s⁻¹; kon [6]: 230000 M⁻¹ s⁻¹; Kd (Human CD47-C33G [7]): 36 nM; koff (Human CD47-C33G [7]): 0.003 s⁻¹; kon (Human CD47-C33G [7]): 85000 M⁻¹ s⁻¹; Kd [8]: 6.1 nM; koff [8]: 0.0014 s⁻¹; kon [8]: 230000 M⁻¹ s⁻¹; fold drop of mono-valent binding affinity (reference not given; Table 2, experiment 1) (Human CD47-C33G [9]): 34 fold

B2: 108VH5.M16 / 108VL1.M5 (antibody, human IgG4 S228P, kappa, V domains shown)
VH: EVQLVQSGAEVKKPGASVKVSCKASGYTFTHHWMHWVRQAPGQGLEWMGMIDASDGETRYAQKFQGRVTMTRDTSTSTVYMELSSLRSEDTAVYYCARLGRYYFDYWGQGTLVTVSS
VL: EIVLTQSPATLSLSPGERATLSCRASQSVSSYLAWYQQKPGQAPRLLIYGASNRATGIPARFSGSGSGTDFTLTISSLEPEDFAVYYCGESYGHLYTFGGGTKVEIKR
notes: Full-length IgG4 (S228P), kappa; also called VH5.M16 VL1.M5
Q: What does the source list for B2?
A: Fitted Maximal MFI [10]: 45300 MFI; EC50 [11]: 1.9 nM; EC50 [12]: 3.9 nM; EC50 [13]: 6.9 nM; Fitted Maximal MFI [13]: 44700 MFI; Kd (Human CD47-C33G [14]): 14 nM; koff (Human CD47-C33G [14]): 0.0041 s⁻¹; kon (Human CD47-C33G [14]): 290000 M⁻¹ s⁻¹; Kd [15]: 2.6 nM; koff [15]: 0.0019 s⁻¹; kon [15]: 720000 M⁻¹ s⁻¹; EC50 [16]: 1.8 nM

B3: 108VH4.M4-VL1.M1 (antibody, V domains shown)
VH: EVQLVQSGAEVKKPGSSVKVSCKASGYSFTHHWIHWVRQAPGQGLEWMGMIDASDSETRLSQKFKDRVTITADKSTSTAYMELSSLRSEDTAVYYCARLGRYYFDYWGQGTTVTVSS
VL: EIVLTQSPATLSLSPGERATLSCRASENVGTYISWYQQKPGQAPRLLIYGASNRYTGIPARFSGSGSGTDFTLTISSLEPEDFAVYYCGESYGHLYTFGGGTKVEIK
notes: also called original humanized 108C10A6 antibody
Q: For B3, which Kd (Human CD47-C33G [1]) is on record?
A: 2.6 nM

Q: And the koff (Human CD47-C33G [1])?
A: 0.00097 s⁻¹

Q: What about the kon (Human CD47-C33G [1]) of the same binder?
A: 380000 M⁻¹ s⁻¹

Q: What about the Kd [2] of the same binder?
A: 0.47 nM

Q: And the koff [2]?
A: 0.00046 s⁻¹

Q: What about the kon [2] of the same binder?
A: 980000 M⁻¹ s⁻¹

Q: What about the EC50 [11] of the same binder?
A: 2.6 nM

Q: What about the EC50 [17] of the same binder?
A: 7.6 nM

Q: And the EC50 [13]?
A: 5.5 nM

Q: What about the “Fitted Maximal MFI” value [13] of the same binder?
A: 46600 MFI

Q: And the Kd (Human CD47-C33G [14])?
A: 1.9 nM

Q: What about the koff (Human CD47-C33G [14]) of the same binder?
A: 0.00084 s⁻¹

Q: What about the kon (Human CD47-C33G [14]) of the same binder?
A: 430000 M⁻¹ s⁻¹

Q: What about the Kd [15] of the same binder?
A: 0.41 nM

Q: What about the koff [15] of the same binder?
A: 0.00041 s⁻¹

Q: And the kon [15]?
A: 1e+06 M⁻¹ s⁻¹

Q: And the EC50 [16]?
A: 4.3 nM

Q: What about the Kd (Human CD47-C33G [3]) of the same binder?
A: 1.5 nM

Q: What about the koff (Human CD47-C33G [3]) of the same binder?
A: 0.00086 s⁻¹

Q: And the kon (Human CD47-C33G [3])?
A: 570000 M⁻¹ s⁻¹

Q: What about the Kd [4] of the same binder?
A: 0.38 nM

Q: What about the koff [4] of the same binder?
A: 0.00041 s⁻¹

Q: What about the kon [4] of the same binder?
A: 1.1e+06 M⁻¹ s⁻¹

Q: What about the Kd (Human CD47-C33G [18]) of the same binder?
A: 1.5 nM

Q: What about the koff (Human CD47-C33G [18]) of the same binder?
A: 0.00086 s⁻¹

Q: What about the kon (Human CD47-C33G [18]) of the same binder?
A: 570000 M⁻¹ s⁻¹

Q: And the Kd [19]?
A: 0.38 nM

Q: What about the koff [19] of the same binder?
A: 0.00041 s⁻¹

Q: What about the kon [19] of the same binder?
A: 1.1e+06 M⁻¹ s⁻¹

Q: What about the Kd (Human CD47-C33G [20]) of the same binder?
A: 1.8 nM

Q: What about the koff (Human CD47-C33G [20]) of the same binder?
A: 0.00087 s⁻¹

Q: What about the kon (Human CD47-C33G [20]) of the same binder?
A: 480000 M⁻¹ s⁻¹

Q: What about the Kd [21] of the same binder?
A: 0.4 nM

Q: And the koff [21]?
A: 0.00042 s⁻¹

Q: What about the kon [21] of the same binder?
A: 1.1e+06 M⁻¹ s⁻¹

Q: What about the Kd (Human CD47-C33G [5]) of the same binder?
A: 2.1 nM

Q: And the koff (Human CD47-C33G [5])?
A: 0.00087 s⁻¹

Q: What about the kon (Human CD47-C33G [5]) of the same binder?
A: 410000 M⁻¹ s⁻¹

Q: And the Kd [6]?
A: 0.39 nM

Q: And the koff [6]?
A: 0.00039 s⁻¹

Q: And the kon [6]?
A: 1e+06 M⁻¹ s⁻¹

Q: And the Kd (Human CD47-C33G [7])?
A: 1.9 nM

Q: What about the koff (Human CD47-C33G [7]) of the same binder?
A: 0.00084 s⁻¹

Q: What about the kon (Human CD47-C33G [7]) of the same binder?
A: 430000 M⁻¹ s⁻¹

Q: And the Kd [8]?
A: 0.41 nM

Q: What about the koff [8] of the same binder?
A: 0.00041 s⁻¹

Q: What about the kon [8] of the same binder?
A: 1e+06 M⁻¹ s⁻¹
